Results taken from patent US20050042220A1 (GENETICS INSTITUTE, published 2005).
Values belong to the binder of their own block, whether it stands above or below them.

Columns and labels:
[1] = biological target: T1, human IL-22R extracellular domain-Fc fusion homodimer (human, UniProt Q8N6P7 16-228); assay: sandwich ELISA: rabbit anti-hIL-22R coat, 1:1 mixture of IL-22R-Fc and IL-10R2-Fc media titrated, biotinylated goat anti-hIL-10R2 then streptavidin-HRP, A450
T1 construct: extracellular domain; Used as CHO conditioned medium, not purified; also called IL-22R-Fc; IL-22RECD-Fc; not shown: human IgG1 Fc
T1 sequence: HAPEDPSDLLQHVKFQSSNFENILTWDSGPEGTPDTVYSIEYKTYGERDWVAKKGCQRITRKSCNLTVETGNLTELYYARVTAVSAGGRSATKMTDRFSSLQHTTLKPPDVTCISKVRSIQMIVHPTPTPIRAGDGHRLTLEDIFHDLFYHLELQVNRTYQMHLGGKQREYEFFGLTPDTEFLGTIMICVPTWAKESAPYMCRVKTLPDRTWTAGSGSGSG
Experimental: Monomeric IL-22RECD-Fc and IL-10R2ECD-Fc fusions were determined to have molecular weights of ˜60 kD and ˜85 kD, respectively. Reduced and non-reduced conditioned media (CM) from CHO cells expressing either or both receptor Fc fusions was separated on SDS-PAGE gels and blotted to a membrane which was then probed with polyclonal antibodies directed against either human IgG Fc, IL-22R or IL-10R2. More specifically, in FIG. 7A, conditioned media from CHO cells expressing either IL-22R-Fc, IL-10R2-Fc or both receptor Fc were separated on 8% polyacyrlamide gels under both reduced (+βME) and non-reduced (−βME) conditions and transferred to membrane blots. Western blots were carried out using any of anti-human IgG1, anti-hIL-22R or anti-hIL-10R2 antibodies. For anti-hIgG detection of a blot, 4 ng total Fc fusion in CM was loaded in each lane. For anti-IL-22R and anti-IL-10R2 antibody detection, 16 ng total Fc fusion in CM from co-expressing CHO was used. […] The bound receptors were detected using a biotinylated goat anti-human IL-10R2 antibody, followed by streptavidin-HRP.
The presence of heterodimers in the CM from CHO cells was verified by sandwich ELISA, using antibodies specific for each chain of the heterodimer. Conditioned media was added to wells coated with an IL-22R polyclonal antibody and bound protein was then detected with a biotinylated IL-10R2 polyclonal antibody. […]

[2] = biological target: T2, human IL-22 binding protein-Fc fusion (human, UniProt Q969J5-2 22-231, limits assumed); assay: BIAcore, Fc fusion from conditioned medium captured by anti-human IgG, IL-22 injected, 1:1 model
T2 construct: Fc fusion homodimer, used as CHO conditioned medium; also called IL-22BP-Fc; huIL22BP-huFc; not shown: human IgG1 Fc
T2 sequence: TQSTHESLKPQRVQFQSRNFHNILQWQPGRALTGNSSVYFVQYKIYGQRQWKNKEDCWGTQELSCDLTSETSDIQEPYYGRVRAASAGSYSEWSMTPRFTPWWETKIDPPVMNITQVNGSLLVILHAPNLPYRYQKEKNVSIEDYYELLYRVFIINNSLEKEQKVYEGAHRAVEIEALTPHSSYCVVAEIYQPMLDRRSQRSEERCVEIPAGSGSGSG
Experimental: (§1) The surface was activated with EDC/NHS. The capturing antibody was injected at a concentration of 50 ug/ml in sodium acetate buffer (pH 4.5), the Protein-A was injected at a concentration of 50 ug/ml in sodium acetate buffer (pH 4.0), or test protein was directly injected at a concentration of 0.01-1 ug/ml in sodium acetate buffer (pH 5.0). The immobilization was done using the wizard tools with aim of 10.000 resonance units (RUs) for the anti-hu or anti-rat IgG, 3000 (RUs) for the Protein-A and […] (RUs) for the directly immobilized testing protein. Remaining activated groups were blocked with 1.0 M ethanolamine (pH 8.0). As control the first flow cell was used as reference surface to correct for bulk refractive index, matrix effects and non-specific binding, the second, third and four flow cells were coated with the capturing molecule.
(§2) For kinetic analysis, condition media containing IL-22R-Fc, IL-10R2-Fc, IL-22R-Fc/IL-10R2-Fc receptor complex or IL-22BP-Fc protein were captured onto the anti-human IgG antibody or protein A surfaces. The rat antibodies were captured onto the anti-rat IgG antibody surface, by injecting 60 ul of a 400 ng/ml solution. […] The dissociation phase was monitored in HBS/EP buffer for 10 minutes at the same flow rate followed by 5 ul injection of 0.1% TFA and 5 ul injection of glycine pH 1.5 to regenerate a fully active capturing surface. […]

[3] = biological target: T1, human IL-22R extracellular domain-Fc …; assay: BIAcore, receptor-Fc from conditioned medium captured by anti-human IgG, IL-22 injected, 1:1 model
Experimental: as §1, §2

[4] = biological target: T3, IL-22R-Fc/IL-10R2-Fc heterodimer from co-expressing CHO cells (human, UniProt Q8N6P7 16-228; Q08334 20-220); assay: as above
T3 construct: extracellular domain; also called IL-22R/IL-10R2-Fc heterodimer; IL-22R-Fc/IL-10R2-Fc complex; not shown: human IgG1 Fc
T3 sequence 1: T1 sequence
T3 sequence 2: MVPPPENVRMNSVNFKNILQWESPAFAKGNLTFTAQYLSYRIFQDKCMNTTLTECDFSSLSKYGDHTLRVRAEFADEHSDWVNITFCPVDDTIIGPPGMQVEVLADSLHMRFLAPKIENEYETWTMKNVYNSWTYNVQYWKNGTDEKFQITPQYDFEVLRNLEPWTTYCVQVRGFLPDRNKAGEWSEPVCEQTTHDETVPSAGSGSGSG
Experimental: as §1, §2

B1: human IL-10R2 extracellular domain-Fc fusion homodimer (Fc fusion)
chain: T3 sequence 2
notes: extracellular domain; Used as CHO conditioned medium, not purified; also called IL-10R2-Fc; IL-10R2ECD-Fc; not shown: human IgG1 Fc
- binding result [1]: no binding (tested: 100 ng/ml total Fc fusion)

- Kd [2]: 3.37 nM
- Kd [3]: 41 nM
- Kd [4]: 1.48 nM
B2: N terminal His/Flag tagged human IL-22 (ligand)
chain: GSGHHHHHHGSGDYKDDDDKAPISSHCRLDKSNFQQPYITNRTFMLAKEASLADNNTDVRLIGEKLFHGVSMSERCYLMKQVLNFTLEEVLFPQSDRFQPYMQEVVPFLARLSNRLSTCHIEGDDLHIQRNVQKLKDTVKKLGESGEIKAIGELDLLFMSLRNACI
notes: Made in CHO cells, extensively N-glycosylated; also called human h/f tagged IL-22; hIL-22
